Source: US6218600A, “Structure and expression of the biotin carboxylase subunit of heteromeric acetyl-CoA carboxylase” (Board of Trustees Operating Michigan State University, priority 1996, dated 2001)

Key:
[1] = test system: Castor Endosperm ACCase; assay: ACCase activity assay, castor endosperm extract, with metabolites of fatty acid synthesis; assay type: biochemical, castor (Ricinus Communis L.); settings: mean of duplicate determinations ± standard deviation, 15 min
[2] = test system: Pea Chloroplast ACCase; assay: ACCase activity assay, pea chloroplast enzyme partially purified by gel permeation, with metabolites of fatty acid synthesis; assay type: biochemical, pea (Pisum sativum); settings: mean of duplicate determinations ± standard deviation, 15 min

| Molecule | Castor ACCase Activity (% of Control) ([1]; 10 μM addition) | Pea ACCase Activity (% of control) ([2]; 1 μM addition) | Pea ACCase Activity (% of control) ([2]; 3 μM addition) | Pea ACCase Activity (% of control) ([2]; 10 μM addition) | Castor ACCase Activity (% of Control) ([1]; 5 μM addition) |
| --- | --- | --- | --- | --- | --- |
| CCCCCCCCCCCCCCCC(=O)O [16:0, reference compound] | 97 ± 8 % of Control | – | – | – | – |
| CCCCCCCC/C=C\CCCCCCCC(=O)O [18:1, Oleic acid, reference compound] | 72 ± 10 % of Control | – | – | – | – |
| 16:0-ACP: long-chain acyl-ACP synthesized from radioactive 16:0 fatty acid and recombinant spinach ACP-I (conjugate, UniProt P07854 57-138, looked up, radiolabeled palmitoyl (16:0) acyl thioester) Acyl carrier protein 1, …: AKKETIDKVCDIVKEKLALGADVVVTADSEFSKLGADSLDTVEIVMNLEEEFGINVDEDKAQDISTIQQAADVIESLLEKKA | 75 ± 3 % of Control | 98 ± 2 % of control | 91 ± 4 % of control | 77 ± 4 % of control | – |
| 18:1-ACP: long-chain acyl-ACP synthesized from radioactive 18:1 fatty acid and recombinant spinach ACP-I (conjugate, UniProt P07854 57-138, looked up, radiolabeled oleoyl (18:1) acyl thioester) Acyl carrier protein 1, …: AKKETIDKVCDIVKEKLALGADVVVTADSEFSKLGADSLDTVEIVMNLEEEFGINVDEDKAQDISTIQQAADVIESLLEKKA | 63 ± 11 % of Control | 97 ± 1 % of control | 87 ± 3 % of control | 79 ± 14 % of control | 81 ± 9 % of Control |
